Key:
[1] = biological target: T1, recombinant MAGEA3 protein (human, UniProt P43357 1-314); test: ELISA, recombinant MAGEA3 coated to plastic, serial dilutions of antibody, OD 450 nm
T1 construct: In Experiment 4C MAGEA3 was also expressed in transiently transfected HEK293T cells (fixed and permeabilized); also called His-tagged MAGEA3; CT1.3
Experimental: FIG. 4 EC50 determination of recombinant human monoclonal antibodies to MAGEA3. MAGEA3-ELISA was carried out using recombinant MAGEA3 coated to plastic and serial dilutions of the human monoclonal antibodies 21B4, 54B4, 94G11, 9A5, 31H10, 43B10, 2G4, 20C10, 26C9 and 4D6 (A-J). EC50 values are indicated in each figure.
The EC₅₀, the concentration at which half-maximal binding of the antibody to its antigen is observed was determined in MAGEA3 ELISA using serial dilutions of the human monoclonal antibodies 21B4, 54B4, 94G11, 9A5, 31H10, 43B10, 2G4, 20C10, 26C9 and 4D6. EC50 values were determined mathematically by derivation of the best-fit line using GraphPad software.

recombinant MAGEA10 = biological target: T2, recombinant MAGEA10 (UniProt P43363 1-369, limits assumed); test: ELISA on coated recombinant MAGEA proteins, serial dilutions of antibody (concentrations not printed on the sheet)
T2 construct: also called CT1.10
Experimental: (§1) Recombinantly expressed MAGEA3, MAGEA1, MAGEA4, MAGEA10 were coated on ELISA plates and binding of MAGEA3 antibodies 21B4, 94G11, 2G4, 9A5 and 54B4 to these proteins was tested. The results are depicted in FIG. 3B).

recombinant MAGEA4 = biological target: T3, recombinant MAGEA4 (UniProt P43358 1-317, limits assumed); test: as above
T3 construct: also called CT1.4
T3 sequence (looked up): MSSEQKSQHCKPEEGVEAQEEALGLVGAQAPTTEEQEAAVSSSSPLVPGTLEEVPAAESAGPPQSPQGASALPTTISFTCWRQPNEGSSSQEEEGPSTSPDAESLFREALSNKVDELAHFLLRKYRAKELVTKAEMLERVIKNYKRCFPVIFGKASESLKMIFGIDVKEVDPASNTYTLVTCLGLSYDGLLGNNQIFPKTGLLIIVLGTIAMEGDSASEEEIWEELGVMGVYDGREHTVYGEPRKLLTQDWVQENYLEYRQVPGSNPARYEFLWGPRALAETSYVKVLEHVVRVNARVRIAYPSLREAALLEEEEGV
Experimental: as §1

recombinant MAGEA1 = biological target: T4, recombinant MAGEA1 (UniProt P43355 1-309, limits assumed); test: as above
T4 construct: also called CT1.1
T4 sequence (looked up): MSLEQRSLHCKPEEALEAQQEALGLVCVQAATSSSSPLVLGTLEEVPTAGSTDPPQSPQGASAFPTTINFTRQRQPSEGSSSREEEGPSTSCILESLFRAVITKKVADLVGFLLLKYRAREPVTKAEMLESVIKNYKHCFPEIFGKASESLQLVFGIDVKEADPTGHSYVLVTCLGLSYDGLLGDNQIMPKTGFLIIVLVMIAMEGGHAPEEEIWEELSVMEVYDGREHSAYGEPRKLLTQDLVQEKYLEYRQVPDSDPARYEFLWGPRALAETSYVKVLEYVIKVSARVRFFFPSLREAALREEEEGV
Experimental: as §1

MAGEA3 peptide No 24 = biological target: T5, MAGEA3 peptide No 24; test: ELISA on plates coated with overlapping 20mer MAGEA3 peptides; antibody at 1 µg/ml; HRP goat anti-human IgG Fc-gamma
T5 construct: member of the group m18; also called 20mer peptide, amino acids 231-250 of MAGEA3
T5 peptide: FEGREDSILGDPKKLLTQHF
Experimental: (§2) 20mer peptides spanning the entire MAGEA3 protein with 10 aa overlaps shared by each adjacent peptide (Peptides&Elephants, Nuthetal, Germany) were used to coat Maxisorp ELISA plates (Nunc, Rochester, N.Y.). As control a 20mer peptide representing amino acids 40-21 from the NY-ESO-1 protein was used (rev). The numbering of amino acids of MAGEA3 is based on SEQ ID No.: 101.
(§3) Human recombinant antibody was used at a concentration of 1 μg/ml with the exception of antibody 9A5 which was used at […]. Bound human antibody was detected using horseradish peroxidase-conjugated goat anti-human IgG Fc-gamma specific antibodies (Jackson ImmunoResearch, Europe Ltd., Cambridgeshire, UK).

MAGEA3 peptide No 7 = biological target: T6, MAGEA3 peptide No 7; test: as above
T6 construct: member of the group m18; also called 20mer peptide, amino acids 61-80 of MAGEA3
T6 peptide: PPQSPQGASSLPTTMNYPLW
Experimental: as §2, §3

MAGEA3 peptide No 8 = biological target: T7, MAGEA3 peptide No 8; test: as above
T7 construct: member of the group m18; also called 20mer peptide, amino acids 71-90 of MAGEA3
T7 peptide: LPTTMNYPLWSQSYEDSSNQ
Experimental: as §2, §3

MAGEA6 = biological target: T8, MAGEA6 (UniProt P43360 1-314, limits assumed); test: flow cytometry on fixed, permeabilized HEK293T cells transiently transfected with MAGEA6; PE-labeled anti-human antibody
T8 construct: whole, on cells; Intracellular antigen: the transfected cells were fixed and permeabilized before staining; also called CT1.6
Experimental: HEK293T cells transiently transfected with MAGEA3 or MAGE A6 were fixed and permeabilized and incubated with human-derived antibodies. Binding of human-derived antibodies to the cells was detected by flow cytometry using PE-labeled anti-human antibodies. […] Filled histograms show binding of 21B4, 31H10, 94G11 and 54B4 to transiently transfected HEK 293 cells. Only a proportion of the cells was transfected resulting in a population expressing the transgene and in a population not expressing the transgene. […] The results are depicted in FIG. 3C).

T8 sequence (P43360 whole entry): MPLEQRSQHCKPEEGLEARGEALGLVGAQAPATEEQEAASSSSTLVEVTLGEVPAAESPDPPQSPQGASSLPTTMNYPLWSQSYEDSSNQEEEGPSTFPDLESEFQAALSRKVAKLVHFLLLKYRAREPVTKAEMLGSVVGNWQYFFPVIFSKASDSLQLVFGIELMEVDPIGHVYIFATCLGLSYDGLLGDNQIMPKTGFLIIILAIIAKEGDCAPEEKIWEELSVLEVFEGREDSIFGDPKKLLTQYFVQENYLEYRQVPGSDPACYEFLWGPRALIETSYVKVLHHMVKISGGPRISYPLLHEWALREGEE
T1 sequence (P43357 whole entry): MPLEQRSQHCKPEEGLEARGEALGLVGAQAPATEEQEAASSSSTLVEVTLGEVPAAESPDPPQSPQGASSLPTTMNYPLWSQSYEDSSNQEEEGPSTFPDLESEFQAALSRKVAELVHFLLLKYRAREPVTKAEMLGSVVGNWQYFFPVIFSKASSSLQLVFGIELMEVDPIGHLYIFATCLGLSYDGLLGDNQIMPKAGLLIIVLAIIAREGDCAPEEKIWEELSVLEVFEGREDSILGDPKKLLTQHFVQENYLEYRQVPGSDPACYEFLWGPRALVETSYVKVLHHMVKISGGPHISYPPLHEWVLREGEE
T2 sequence (P43363 whole entry): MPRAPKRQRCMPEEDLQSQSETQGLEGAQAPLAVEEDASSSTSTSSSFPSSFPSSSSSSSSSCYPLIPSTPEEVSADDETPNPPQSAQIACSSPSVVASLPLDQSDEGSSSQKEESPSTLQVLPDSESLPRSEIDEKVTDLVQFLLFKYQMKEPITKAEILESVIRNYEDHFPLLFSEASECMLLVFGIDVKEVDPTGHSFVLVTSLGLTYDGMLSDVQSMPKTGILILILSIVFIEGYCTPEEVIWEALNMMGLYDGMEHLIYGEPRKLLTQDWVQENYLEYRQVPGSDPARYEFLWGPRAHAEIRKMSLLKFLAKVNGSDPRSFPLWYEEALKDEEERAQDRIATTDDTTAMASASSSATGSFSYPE

EC50 [1]: 31.3 pM | binding result (recombinant MAGEA10): no binding | binding result (recombinant MAGEA4): no binding | binding result (recombinant MAGEA1): no binding | binding result (MAGEA3 peptide No 24): binds | binding result (MAGEA3 peptide No 7): binds | binding result (MAGEA3 peptide No 8): binds | binding result (MAGEA6): binds
B1: 21B4 (antibody, V domains shown)
VH: QVQLVESGGGVVQPGRSLRLSCTASGFRFRSHGMHWVRQAPGKGLEWVAVISYDGNNKLYADSVKGRITISRDNSKNTLFLQMNNVRAEDTAVYYCASPYTSDWQYFQYWGQGTLVIVSS
VL: EIVMTQSPATLSVSPGERATFSCRASQNISTTLAWYQQKPGQAPRLLIYDTSTRATGIPARFSGSGSGTEFTLTISSLQSEDLAVYYCQQSNSWPLTFGGGTKVEIK
notes: Patient-derived; also called human-derived recombinant antibody 21B4; human monoclonal antibody 21B4
